Source: the supplement of paper PMC7877785
± gives the uncertainty stated by the source.

Experiment: self-splicing fitness, log relative to wild type (ln ratio); higher = more splicing; Tetrahymena group I intron in knt gene, E. coli kanamycin selection, DiMSum; sequences stand for … in CUCUCU…GGAGGGAAAAGUUAUCAGGCAUGCACCUGGUAGCUAGUCUUUAAACCAAUAGAUUGCAUCGGUUUAAAAGGCAAGACCGUCAAAUUGCGGGAAAGGGGUCAACAGCCGUUCAGUACCAAGUCUCAGGGGAAACUUUGAGAUGGCCUUGCAAAGGGUAUGGUAAUAAGCUGACGGACAUGGUCCUAACCACGCAGCCAAGUCCUAAGUCAACAGAUCUUCUGUUGAUAUGGAUGCAGUUCACAGACUAAAUGUCGGUCGGGGAAGAUGUAUUCUUCUCAUAAGAUAUAGUCGGACCUCUCCUUAAUGGGAGCUAGCGGAUGAAGUGAUGCAACACUGGAGCCGCUGGGAACUAAUUUGUAUGCGAAAGUAUAUUGAUUAGUUUUGGAGUACUCGUGGUCG
Procedure, shortened: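 Fitness was computed with DiMSum as the error-weighted combination of replicate fold changes, kanamycin versus none, each normalised to wild type. The library randomised all eight intron nucleotides of the P1ex region, with the intron placed in the knt kanamycin-resistance gene on pET-22b(+) in E. coli BL21(DE3). Six replicate transformations were grown overnight at 37°C or 30°C on LB agar with or without 25 μg/mL kanamycin, plus 100 μg/mL carbenicillin, 50 μM IPTG and 0.2% rhamnose. Pooled colonies were amplicon-sequenced on an Illumina HiSeq 2500.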

Sequence | self-splicing fitness (ln) (30 °C) | self-splicing fitness (ln) (37 °C)
UGGCAGCAAUAUUACGCUAA | -0.652 ± 0.06 | 0.116 ± 0.069
AUCUAGCAAUAUUACGAGCC | -2.69 ± 0.45 | –
GCGUAGCAAUAUUACGAGCU | -1.5 ± 0.12 | -1.66 ± 0.23
ACGGAGCAAUAUUACGCGGC | -3.42 ± 0.44 | –
AACGAGCAAUAUUACGAUCU | -0.758 ± 0.088 | -0.0761 ± 0.1
GACCAGCAAUAUUACGCCCG | -1.72 ± 0.12 | -0.754 ± 0.13
AACUAGCAAUAUUACGCAAU | -2.35 ± 0.13 | -2.15 ± 0.16
GAAGAGCAAUAUUACGUAUU | -3.86 ± 0.28 | -1.04 ± 0.13
GUGAAGCAAUAUUACGGAAA | -1.64 ± 0.11 | -0.16 ± 0.17
GUGCAGCAAUAUUACGGUCC | -0.146 ± 0.15 | 0.0655 ± 0.22
UUUAAGCAAUAUUACGGGUA | -2.25 ± 0.13 | -0.422 ± 0.11
UACUAGCAAUAUUACGAUUC | -2.3 ± 0.23 | -1.76 ± 0.43
GCUCAGCAAUAUUACGGUAA | -1.52 ± 0.13 | -0.551 ± 0.11
UACCAGCAAUAUUACGUGAC | -3.12 ± 0.13 | -1.12 ± 0.14
UCCAAGCAAUAUUACGUGUG | -2.08 ± 0.066 | -1.75 ± 0.081
GUAUAGCAAUAUUACGAGAU | -3 ± 0.29 | -1.22 ± 0.22
UGAUAGCAAUAUUACGUCGA | -1.69 ± 0.11 | -0.847 ± 0.1
UCUGAGCAAUAUUACGCUUU | -3.64 ± 0.23 | -3.19 ± 0.19
AUGUAGCAAUAUUACGGCUG | -1.95 ± 0.14 | -2.27 ± 0.28
UCUUAGCAAUAUUACGCUGG | -2.64 ± 0.24 | -1.64 ± 0.23

Sequence | self-splicing fitness (ln) (30 °C) | self-splicing fitness (ln) (37 °C)
CAAAAGCAAUAUUACGAAUG | -1.18 ± 0.057 | -0.723 ± 0.076
CGCAAGCAAUAUUACGCAAG | -2.84 ± 0.31 | -2.2 ± 0.31
CUUAAGCAAUAUUACGUACC | -2.7 ± 0.35 | -0.17 ± 0.47
GAAGAGCAAUAUUACGUCUG | -2.34 ± 0.14 | -1.76 ± 0.16
GUCCAGCAAUAUUACGACUG | -4.63 ± 0.39 | -1.86 ± 0.22
UACAAGCAAUAUUACGAACA | -1.14 ± 0.11 | -0.734 ± 0.097
ACUCAGCAAUAUUACGUUCA | -1.36 ± 0.085 | -0.842 ± 0.11
GGAAAGCAAUAUUACGAGAG | -4.25 ± 0.26 | -0.533 ± 0.1
AUCUAGCAAUAUUACGGUAC | -2.16 ± 0.11 | -2.44 ± 0.14
CUGGAGCAAUAUUACGAAUU | – | -1.27 ± 0.29
GUAGAGCAAUAUUACGAGUU | -2.39 ± 0.2 | -1.85 ± 0.2
CUGCAGCAAUAUUACGCUAG | -3.01 ± 0.17 | -2.02 ± 0.24
ACCUAGCAAUAUUACGCUCC | -1.55 ± 0.14 | -0.204 ± 0.12
AAGUAGCAAUAUUACGUAAA | -1.09 ± 0.095 | -0.434 ± 0.14
AGGAAGCAAUAUUACGGACG | -0.899 ± 0.13 | 0.276 ± 0.14
CUCAAGCAAUAUUACGCCAG | -3.03 ± 0.28 | -0.675 ± 0.29
UAACAGCAAUAUUACGCCCU | -1.18 ± 0.08 | 0.471 ± 0.12
CGCUAGCAAUAUUACGAAGA | -2.12 ± 0.46 | –
UCAGAGCAAUAUUACGUUAA | -3.58 ± 0.35 | -2.61 ± 0.34
